In PMC3400562, “Structure-guided Alterations of the gp41-directed HIV-1 Broadly Neutralizing Antibody 2F5 Reveal New Properties Regarding its Neutralizing Function” (PLoS Pathogens, 2012):

Assays:
wt MPER peptide [1] = molecular target: T1, wt MPER peptide (HIV-1, strain  (synthetic …)); test: cell-based or functional assay
wt MPER peptide [2] = molecular target: T1, wt MPER peptide; test: BLI; Octet Red; Mabs captured on anti-human IgG Fc biosensors (10 µg/mL), peptides or ES2 as analyte in solution, two-fold dilutions 500 nM to 7.81 nM, PBS pH 7.4, 0.2% Tween 20, 60 s association and 60 s dissociation, no lipid; Langmuir 1:1 fit; also used for the alanine-substituted MPER peptides; conditions: both partners purified
linked peptide [3] = molecular target: T2, linked peptide (HIV-1, strain  (synthetic …)); test: as above; conditions: both partners purified
T2 construct: source: synthetic peptide (Genscript)

wt MPER peptide [4] = molecular target: T1, wt MPER peptide; test: BLI; conditions: both partners purified
linked peptide [5] = molecular target: T2, linked peptide; test: BLI; conditions: both partners purified

B1: 2F5 CDRH3 length-altered variant r2 (antibody, V domains shown)
VH: RITLKESGPPLVKPTQTLTLTCSFSGFSLSDFGVGVGWIRQPPGKALEWLAIIYSDDDKRYSPSLNTRLTITKDTSKNQVVLVMTRVSPVDTATYFCAHRRGPTLFGVIARGPVNAMDVWGQGITVTISS
VL: ALQLTQSPSSLSASVGDRITITCRASQGVTSALAWYRQKPGSPPQLLIYDASSLESGVPSRFSGSGSGTEFTLTISTLRPEDFATYYCQQLHFYPHTFGGGTRVDVR
With B1 the “IC50 of neutralisation of JR-CSF Env-pseudotyped HIV-1, single-cycle infectivity assay on TZM-bl cells” value (wt MPER peptide [1]) was 98 µg/mL, the “IC50 of neutralisation of JR-FL Env-pseudotyped HIV-1, single-cycle infectivity assay on TZM-bl cells” value (wt MPER peptide [1]) was 111 µg/mL and the Kd (wt MPER peptide [2]) was 90.2 nM. It also gave a koff (wt MPER peptide [2]) of 0.0051 s⁻¹, a kon (wt MPER peptide [2]) of 50000 M⁻¹ s⁻¹ and a Kd (linked peptide [3]) of 55.8 nM. It also gave a koff (linked peptide [3]) of 0.0085 s⁻¹ and a kon (linked peptide [3]) of 150000 M⁻¹ s⁻¹.

B2: wt 2F5 antibody (antibody, V domains shown)
VH: RITLKESGPPLVKPTQTLTLTCSFSGFSLSDFGVGVGWIRQPPGKALEWLAIIYSDDDKRYSPSLNTRLTITKDTSKNQVVLVMTRVSPVDTATYFCAHRRGPTTLFGVPIARGPVNAMDVWGQGITVTISS
VL: ALQLTQSPSSLSASVGDRITITCRASQGVTSALAWYRQKPGSPPQLLIYDASSLESGVPSRFSGSGSGTEFTLTISTLRPEDFATYYCQQLHFYPHTFGGGTRVDVR
notes: also called 2F5 Mab; Mab 2F5
Work on B2 yielded a Kd (wt MPER peptide [4]) of 3.1 nM, a koff (wt MPER peptide [4]) of 0.0007 s⁻¹ and a kon (wt MPER peptide [4]) of 230000 M⁻¹ s⁻¹. The Kd (linked peptide [5]) was 2.2 nM, the koff (linked peptide [5]) was 0.0007 s⁻¹ and the kon (linked peptide [5]) was 360000 M⁻¹ s⁻¹.

B3: 2F5 CDRH3 length-altered variant e4 (antibody, V domains shown)
VH: RITLKESGPPLVKPTQTLTLTCSFSGFSLSDFGVGVGWIRQPPGKALEWLAIIYSDDDKRYSPSLNTRLTITKDTSKNQVVLVMTRVSPVDTATYFCAHRRGPTTGGLFGVGGPIARGPVNAMDVWGQGITVTISS
VL: ALQLTQSPSSLSASVGDRITITCRASQGVTSALAWYRQKPGSPPQLLIYDASSLESGVPSRFSGSGSGTEFTLTISTLRPEDFATYYCQQLHFYPHTFGGGTRVDVR
For B3, the Kd (wt MPER peptide [2]) was 239 nM, the koff (wt MPER peptide [2]) was 0.0101 s⁻¹ and the kon (wt MPER peptide [2]) was 40000 M⁻¹ s⁻¹. For the same binder, the Kd (linked peptide [3]) was 78.6 nM, the koff (linked peptide [3]) was 0.0104 s⁻¹ and the kon (linked peptide [3]) was 130000 M⁻¹ s⁻¹.

B4: 2F5 CDRH3 length-altered variant r4 (antibody, V domains shown)
VH: RITLKESGPPLVKPTQTLTLTCSFSGFSLSDFGVGVGWIRQPPGKALEWLAIIYSDDDKRYSPSLNTRLTITKDTSKNQVVLVMTRVSPVDTATYFCAHRRGPLFGVARGPVNAMDVWGQGITVTISS
VL: ALQLTQSPSSLSASVGDRITITCRASQGVTSALAWYRQKPGSPPQLLIYDASSLESGVPSRFSGSGSGTEFTLTISTLRPEDFATYYCQQLHFYPHTFGGGTRVDVR
B4 was tested, and the Kd (wt MPER peptide [2]) was 382 nM, the koff (wt MPER peptide [2]) was 0.0081 s⁻¹ and the kon (wt MPER peptide [2]) was 20000 M⁻¹ s⁻¹. For the same binder, the Kd (linked peptide [3]) was 96.8 nM, the koff (linked peptide [3]) was 0.0105 s⁻¹ and the kon (linked peptide [3]) was 100000 M⁻¹ s⁻¹.

B5: 2F5 CDRH3 length-altered variant r6 (antibody, V domains shown)
VH: RITLKESGPPLVKPTQTLTLTCSFSGFSLSDFGVGVGWIRQPPGKALEWLAIIYSDDDKRYSPSLNTRLTITKDTSKNQVVLVMTRVSPVDTATYFCAHRRGLFGVRGPVNAMDVWGQGITVTISS
VL: ALQLTQSPSSLSASVGDRITITCRASQGVTSALAWYRQKPGSPPQLLIYDASSLESGVPSRFSGSGSGTEFTLTISTLRPEDFATYYCQQLHFYPHTFGGGTRVDVR
Work on B5 yielded a Kd (wt MPER peptide [2]) of 390 nM, a koff (wt MPER peptide [2]) of 0.0189 s⁻¹ and a kon (wt MPER peptide [2]) of 40000 M⁻¹ s⁻¹. It also gave a Kd (linked peptide [3]) of 125 nM, a koff (linked peptide [3]) of 0.0237 s⁻¹ and a kon (linked peptide [3]) of 180000 M⁻¹ s⁻¹.

B6: 2F5 CDRH3 length-altered variant e2 (antibody, V domains shown)
VH: RITLKESGPPLVKPTQTLTLTCSFSGFSLSDFGVGVGWIRQPPGKALEWLAIIYSDDDKRYSPSLNTRLTITKDTSKNQVVLVMTRVSPVDTATYFCAHRRGPTTGLFGVGPIARGPVNAMDVWGQGITVTISS
VL: ALQLTQSPSSLSASVGDRITITCRASQGVTSALAWYRQKPGSPPQLLIYDASSLESGVPSRFSGSGSGTEFTLTISTLRPEDFATYYCQQLHFYPHTFGGGTRVDVR
With B6 the Kd (wt MPER peptide [2]) was 463 nM, the koff (wt MPER peptide [2]) was 0.0087 s⁻¹ and the kon (wt MPER peptide [2]) was 10000 M⁻¹ s⁻¹. The Kd (linked peptide [3]) was 26.9 nM, the koff (linked peptide [3]) was 0.0035 s⁻¹ and the kon (linked peptide [3]) was 130000 M⁻¹ s⁻¹.
